Experimental data published in patent US20040009175A1.
Blank lines part the entries; values can stand above or below the binder they belong to.

Experiments:
[1] = target: Recombinant GST-MEK5 [GST: P08515]
GST-MEK4 [GST: P08515] = assay: cell-based or functional assay
myc-tagged MEK3 = assay: cell-based or functional assay

activation of GST-MEK4 toward (His)6p38 (in vitro linked kinase assay) (GST-MEK4 [GST: P08515]): 5 fold
activation of GST-MEK4 towards GST-SAPKβ (in vitro linked kinase assay) (GST-MEK4 [GST: P08515]): 150 fold
B1: (His)6TAO1(1-416) (protein)
chain: MRGSHHHHHHMPSTNRAGSLKDPEIAELFFKEDPEKLFTDLREIGHGSFGAVYFARDVRTNEVVAIKKMSYSGKQSTEKWQDIIKEVKFLQRIKHPNSIEYKGCYLREHTAWLVMEYCLGSASDLLEVHKKPLQEVEIAAITHGALQGLAYLHSHTMIHRDIKAGNILLTEPGQVKLADFGSASMASPANSFVGTPYWMAPEVILAMDEGQYDGKVDVWSLGITCIELAERKPPLFNMNAMSALYHIAQNESPTLQSNEWSDYFRNFVDSCLQKIPQDRPTSEELLKHMFVLRERPETVLIDLIQRTKDAVRELDNLQYRKMKKLLFQEAHNGPAVEAQEEEEEQDHGGGRTGTVNSVGSNQSIPSMSISASSQSSSVNSLPDASDDKSELDMMEGDHTVMSNSSVIHLKPEEENYQEEGDPRTRA
enhancement of the ability of MEK3 to phosphorylate p38 (in vitro linked kinase assay) ((His)6MEK3): approximately 100-fold
increase of the ability of GST-MEK6 to phosphorylate (His)6p38 (in vitro linked kinase assay) (GST-MEK6 [GST: P08515]): by 5-fold
activity of MEK1 towards the substrate (His)6ERK2 (in vitro linked kinase assay) (MEK1): completely unable to increase the activity of MEK1 or MEK2 towards the substrate (His)6ERK2
activity of MEK2 towards the substrate (His)6ERK2 (in vitro linked kinase assay) (MEK2): completely unable to increase the activity of MEK1 or MEK2 towards the substrate (His)6ERK2
phosphorylation of GST-MEK5 (in vitro kinase assay) [1]: Recombinant GST-MEK5 was not phosphorylated by (His)6TAO1(1-416)

MEK3 activity in anti-myc immunoprecipitates from co-transfected 293 cells (myc-tagged MEK3): 3 to 4 fold
activity toward p38 of myc-tagged MEK3 immunoprecipitated from co-transfected 293 cells (myc-tagged MEK3): 3 fold
B2: full-length HA-tagged TAO1 (enzyme, not shown: small tags and cut ends)
chain: MPSTNRAGSLKDPEIAELFFKEDPEKLFTDLREIGHGSFGAVYFARDVRTNEVVAIKKMSYSGKQSTEKWQDIIKEVKFLQRIKHPNSIEYKGCYLREHTAWLVMEYCLGSASDLLEVHKKPLQEVEIAAITHGALQGLAYLHSHTMIHRDIKAGNILLTEPGQVKLADFGSASMASPANSFVGTPYWMAPEVILAMDEGQYDGKVDVWSLGITCIELAERKPPLFNMNAMSALYHIAQNESPTLQSNEWSDYFRNFVDSCLQKIPQDRPTSEELLKHMFVLRERPETVLIDLIQRTKDAVRELDNLQYRKMKKLLFQEAHNGPAVEAQEEEEEQDHGGGRTGTVNSVGSNQSIPSMSISASSQSSSVNSLPDASDDKSELDMMEGDHTVMSNSSVIHLKPEEENYQEEGDPRTRASAPQSPPQVSRHKSHYRNREHFATIRTASLVTRQMQEHEQDSELREQMSGYKRMRRQHQKQLMTLENKLKAEMDEHRLRLDKDLETQRNNFAAEMEKLIKKHQASMEKEAKVMANEEKKFQQHIQAQQKKELNSFLESQKREYKLRKEQLKEELNENQSTPKKEKQEWLSKQKENIQHFQAEEEANLLRRQRQYLELECRRFKRRMLLGRHNLEQDLVREELNKRQTQKDLEHAMLLRQHESMQELEFRHLNTIQKMRCELIRLQHQTELTNQLEYNKRRERELRRKHVMEVRQQPKSLKSKELQIKKQFQDTCKIQTRQYKALRNHLLETTPKSEHKAVLKRLKEEQTRKLAILAEQYDHSINEMLSTQALRLDEAQEAECQVLKMQLQQELELLNAYQSKIKMQAEAQHDRELRELEQRVSLRRALLEQKIEEEMLALQNERTERIRSLLERQAREIEAFDSESMRLGFSNMVLSNLSPEAFSHSYPGASSWSHNPTGGSGPHWGHPMGGTPQAWGHPMQGGPQPWGHPSGPMQGVPRGSSIGVRNSPQALRRTALGGRTEQGMSRSTSVTSQISNGSHMSYT
